Results as given in PMC4644235 (Cell, 2015).

B1: Thp1(170-455) (domain or fragment)
chain: GKQRILLYLVNKLNNIYFRIESPQLCSNIFKNFQPKSMLAHFNEYQLDQQIEYRYLLGRYYLLNSQVHNAFVQFNEAFQSLLNLPLTNQAITRNGTRILNYMIPTGLILGKMVKWGPLRPFLSQETIDNWSVLYKHVRYGNIQGVSLWLRQNERHLCARQLLIVLLEKLPMVTYRNLIKTVIKSWTTEWGQNKLPYSLIERVLQLSIGPTFEDPGAQEITIYNGIHSPKNVENVLVTLINLGLLRANCFPQLQLCVVKKTTMIQEIVPPVNERITKMFPAHSHVLW

What was measured:
[1] = biological target: B1; experiment: crystal structure
[2] = biological target: T1, Sac3(222-572) (S. cerevisiae, UniProt P46674 222-572); experiment: crystal structure
T1 sequence: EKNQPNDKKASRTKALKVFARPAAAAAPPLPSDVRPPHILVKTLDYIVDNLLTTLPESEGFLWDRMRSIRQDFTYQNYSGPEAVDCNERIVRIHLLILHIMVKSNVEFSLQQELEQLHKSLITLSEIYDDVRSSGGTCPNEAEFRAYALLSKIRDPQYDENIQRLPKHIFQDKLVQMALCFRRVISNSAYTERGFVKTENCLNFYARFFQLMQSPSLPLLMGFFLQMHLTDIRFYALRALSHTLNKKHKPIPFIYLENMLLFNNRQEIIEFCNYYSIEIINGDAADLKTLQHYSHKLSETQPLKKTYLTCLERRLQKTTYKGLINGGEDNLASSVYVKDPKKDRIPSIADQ

| binding result [1] | binding result [2] | Binder |
| --- | --- | --- |
| binds |  | Sem1 (natural protein) MSTDVAAAQAQSKIDLTKKKNEEINKKSLEEDDEFEDFPIDTWANGETIKSNAVTQTNIWEENWDDVEVDDDFTNELKAELDRYKRENQ |
|  | binds | B1 |
